This is an account of results in PMC4829898.

This test addresses recombinant soluble tetrameric neuraminidase (tetNA) (Staphylothermus marinus | influenza A virus A/Belgium/2009 (H1N1, 2009 pandemic)). As to the kind of experiment: SEC.

As to “recombinant soluble tetrameric neuraminidase (tetNA) (enzyme)”, the stoichiometry N stood at 4.
